The test system of data set [1] is Human colon adenocarcinoma (HT-29) cells. In words: In-vitro cytotoxicity in HT-29 cells. It is filed as cell-based. The note with it: HT-29 cells, dose inhibiting 50% of cell growth. From the text:
FIGS. 24a and 24b are graphs illustrating the in-vitro cytotoxic effects of SP1-DOX complex. FIG. 24a—HT-29 cells cultured in 96 well microtiter plates were exposed to uncomplexed DOX (closed oval, magenta) or SP1-DOX complex (closed triangle, blue) prepared as described in FIGS. 9-15, at the indicated concentrations. FIG. 24b—HT-29 cells were exposed to uncomplexed SP1 (without DOX) (closed diamond, blue) or SP1-DOX complex (closed triangle, yellow) at indicated concentrations. Proportion of living cells was determined by MTT assay, and the IC50 was calculated.
HT-29 cells were prepared as in FIG. 24 above.
Human colon adenocarcinoma (HT-29) cells. The cells were grown in 50-ml flasks containing DMEM medium (Biological Industries, Bet Haemek), supplemented with 10% fetal calf serum, 1% glutamine and 1% Antibiotic-Antimicotic solution (Biolab, Israel). The cells were trypsinizated, and 2 ml medium containing 5×10^4 cells were plated in each well of a 6-wells plate. SP1, drugs or SP1-complexed with drugs was added at the indicated concentrations. The cells were incubated at 37° C. in a humidified atmosphere containing 5% CO2.After 48 hours the medium in the presence or absence of drugs was replaced in each well respectively, to maintain a constant supply of ingredients and drugs. After four days the medium was removed and the number of viable cells in the cultures was determined by spectroscopy.
The human colorectal adenocarcinoma cell line, HT-29, was used to evaluate the biological activity of the SP1-DOX complex, compared to that of the free drug and un-complexed SP1 protein. […] Thus, the SP1-DOX complex is at least as biologically active as free DOX.

Data set [2] has as its system human LS147T colon cancer. In words: In-vivo anti-tumorogenic activity in colon cancer xenograft. Also noted: species or system CD1 nude mice. The note with it: SP1-DOX 0.5 and free DOX 3 mg DOX/kg iv two times a week. The method, then: CD1 nude mice bearing human LS147T colon cancer (one million cells per animal) subcutaneous xenografted tumors were divided into two groups (n=6), and received either SP1-Dox (50 mg/Kg in PBS, about 0.5 mg DOX equivalent/Kg) or PBS (FIG. 27a), or uncomplexed DOX (3 mg/Kg) or PBS (FIG. 27b) alone injected intravenously into the tail vein twice per week for four weeks. Tumors were removed and weighed 35 days post engraftment.
Human LS147T colon cancer (one million cells per animal) were grafted sub cutaneously to CD1 nude mice, […], 18-20 g) (Meyer et al. 1995 Am J Dermatopath; 17:368-73). 8 days later a 3-10-mm tumor appeared in the point of injection. […]
8 days after tumor grafting SP1-DOX (50 mg/Kg in PBS, about […]), free DOX (3 mg/Kg in PBS) or PBS alone, six mice in each group, were injected iv to the tail vein twice a week for four weeks. Tumor dimension was determined by caliper measurements by the standard equation (Kalechman et al. Int J Cancer 2000; 86:281-8). […] Tumors were removed and their weight was determined.
The effect of SP1-complexing on the anti-tumorogenic activity of DOX was determined in vivo using the LS147 (human colon cancer) model in CD1 nude mice (Meyer 1995). […] At 35 days past tumor grafting, the animals were sacrificed, tumors were removed and their weight recorded (FIGS. 27a and 27b). […]

The nature of data set [3]: Oligomeric complex formation by SDS PAGE (unboiled samples). The conditions noted are these: boiling and protease stability.
Protocol: SP1 (20 μg) was prepared in SDS sample buffer at different SP1-monomer: SDS molar ratios and boiled (or not) (5 mM) prior to SDS-PAGE analysis. Heat stability of SP1 oligomer (10 μg) was tested in the same buffer at SP1-monomer: SDS=1:1733 and heated for 1 to 10 mM at different temperatures.
Purified 6HSP1 and ΔNSP1 were first denatured to the monomeric forms by boiling the proteins in SDS sample buffer. The denatured proteins were then separated in preparative SDS-PAGE, and visualized by Coomassie blue staining. The monomeric forms of two recombinant protein bands were excised. Gel slices that carried monomeric form of 6HSP1 (SEQ ID NO:7) and ΔNSP1 (SEQ ID NO:2) were mixed at 1:1 ratio (v/v). In order to enhance the surface/volume ratio, the gel slices were pulverized using a pestle and mortar in the presence of liquid nitrogen. […] The hetero-oligomeric complex was isolated by subjecting the eluated protein to Ni-NTA Agarose beads and the bound proteins were eluted by 400 mM imidazole using a standard procedure (Sigma protocol for P 6611). […] The composition of hetero-oligomeric SP1 was determined by SDS-PAGE and visualized by silver staining.
Data set [4] can be described thus: Doxorubicin complex formation and release (ultrafiltration, HPLC, SDS PAGE fluorescence). It is filed as binding. The note with it: for DOX complex formation: reducing conditions (DTT or GSH). Here is the method: Pure wild type SP1 or Cys2 SP1 mutant (1.5 mg/ml in 20 mM Sodium Phosphate buffered, pH=6.8) were incubated overnight at room temp, with DOX 1 mg/ml in the presence of DTT (10 mM), with gentle rolling. Binding reaction was stopped by adding hydrogen peroxide (0.01%), followed by ultra filtration (using 30 kD cutoff filter) and extensive wash until follow-through become colorless. Optical density was measured at both 278 and 477 nm using nanodrop spectrophotometer. Note the dramatic effect of the reducing agent on drug binding by the Cys2 SP1, compared to the absence of effect on the wild type SP1.
FIG. 13 is a histogram illustrating the redox-dependent release of Doxorubicin by Cys2 SP1. Doxorubicin (DOX) was complexed within Cys2 SP1 as described in FIGS. 9-12 above. Release of the drug in the presence of 0, 2 and 20 mM GSH was measured by ultrafiltration and size exclusion HPLC analysis (detection at 228 and 475 nm);
FIG. 14 is a histogram illustrating the effect of oxidation on DOX complex formation by Cys2 SP1. Doxorubicin (DOX) was reacted with Cys2 SP1 and wild type SP1 as described in FIGS. 9-13 above. Oxidized protein indicates exposure to excess of H2O2 prior to treatment with GSH. DOX complex formation was measured by ultrafiltration and size exclusion HPLC analysis (detection at 228 and 475 nm). […] 1=the retentate; 2=the flow through; and 3=a DOX standard 20 μg/ml.
FIG. 17 is a photograph of a fluorescent PAGE analysis illustrating effective complex formation with DOX by Cys2 and SP1 fusion proteins. Recombinant wild type (lanes 1 and 2), Cys2 (lanes 3 and 4), and SP1 fusion proteins having additional N-terminal tumor specific peptide RGD (CRGD, SEQ ID NO:151; fusion protein is SEQ ID NO: 5)(lanes 5 and 6), or RGD in reverse order (RGDC, SEQ ID NO: 152; fusion protein is SEQ ID NO: 6)(lanes 7 and 8) were reacted with DOX to form complex as described in FIGS. 9-14 above, and then separated on SDS-PAGE with (lanes 2, 4, 6 and 8) or without (lanes 1, 3, 5 and 7) denaturation by boiling in LSB.
(§1) Ultrafiltration was used for the detection of complex formation with the water soluble ligands FA and DOX which have a distinctive absorption properties and can be determined by spectroscopic measurements. […] Several additional washing cycles remove all remaining free FA and DOX, and the ligand-SP1 complex remains in the retained fraction.
(§2) Size exclusion chromatography is a common method for separation of molecules of different sizes under mild conditions and was employed to test FA and DOX complex formation under mild conditions. SP1 is eluted from the column after 7 min and is detected at 278 nm only, and free FA is eluted from the column (TSK G3000 SWXL, Tosohaas) after 16 min and is detected at 490 nm. The SP1-FA and SP1-DOX complexes also eluted at the same time but is detected also at 490 and 475 nm, respectively. DOX/SP1 ratio is determine from the standard curve obtained in solution.
Reverse phase HPLC (RP-HPLC) analysis separates between free DOX, PXT, and SP1. Both compounds bind to the resin (C-18) and are eluted at different acetonitrile concentrations, and detected at both 278 and 225 nm (SP1), 225 nm (PTX) and 477 nm (DOX).
Pyrogen free Cys2 SP1 variant (SEQ ID NO:3) in 20 mM (Na Phosphate buffer pH-6.7) final 2 mg/ml was diluted with DOX solution (Teva, Israel) 1:2 dilution final 1 mg/ml. Where indicated, GSH was added, and the solution is mixed overnight. Where indicated (oxidized), H2O2 is added to 0.1%, buffer added to 3× volume, and the solution is sonicated (3×22 sec. 1:1 pulse/pause at 3% amplitude 0.5 min. pause, using a Vibra-Cell 750 W sonicator).

A short description of data set [5]: Resistance of SP1 complex to organic solvents. It is filed as physicochemical. The method, then:
150 ul of 1 mg/ml samples in 10 mM sodium phosphate pH 7 were lyophilized overnight and resuspended in 150 μl organic solvents for 10 minutes. Following a 30 minutes speed vac the samples were resuspended in 150 μl water and analyzed by SDS-PAGE.
In order to further test the stability of SP1 and SP1 oligomeric complexes, wild type SP1 and the SP1 variant Cys2 SP1 were dissolved in buffer, exposed to organic solvents methanol and hexane, and analyzed by SDS-PAGE (FIG. 18).
In order to determine the stability of the SP1 complex in organic solvents, SP1 and Cys2 SP1-variant (SEQ ID NO: 3) were dissolved in organic solvents, dried, reconstituted with aqueous solvent, and separated on SDS-PAGE.

The nature of data set [6]: Fluorescein-amine complex formation (ultrafiltration, size exclusion HPLC). It is filed as binding. Here is the method:
FIG. 9 is a histogram showing redox-dependent complex formation with small molecules by Cys2 SP1. Pure Cys 2 mutant (1.5 mg/ml in Phosphate buffered saline, pH=7.5 (PBS)) was incubated for 2 hours at room temp, with I mM fluorescein-amine with or without glutathione (reduced form, GSH 3 mM). Binding reaction was stopped by adding hydrogen peroxide (0.01%), followed by ultra filtration (using a 30 kD cutoff filter) and extensive wash. Absorption analysis was conducted at both 278 and 492 nm, and the results expressed as the 492/278 ratio. Note that in the absence of the reducing agent (GSH), retention of the flourescein-amine is negligible;
FIG. 10 is a graphic representation of the redox-dependent fluorescein amine complex formation by Cys2 SP1, compared to the recombinant SP1. Fluorescein-amine was incubated with pure SP1 or Cys2 SP1 mutant (1.5 mg/ml in PBS pH=7.5) in the absence or presence of DTT (10 mM). Binding reaction was stopped by adding hydrogen peroxide (0.01%), followed by ultra filtration (using 30 kD cutoff filter) and extensive wash. Samples were analyzed by Gel filtration HPLC, and detected at both 228 and 490 nm. Calculated data is shown on the right.
FIG. 11 is a histogram illustrating the concentration dependent complex formation with fluorescein-amine by Cys2 SP1. Huorescien-amine (10, 33, 100 or 333 mM) was incubated with Cys 2 SP1 or pure wild type SP1 in the presence of 10 mM DTT, and the bound and unbound fractions analyzed by ultra-filtration and HPLC as in FIG. 10.
as §1, §2
5. Can complexed ligand be stabilized by association with the Cys2 SP1? Fluoresceine amine (FA): FA absorption peak is at 490 nm and at much lower extend at 278 nm (for a given FA concentration OD278/OD490=0.19)(see FIG. 31), when SP1 absorption peak is at 278 nm (see FIG. 30), and it is not detected at 490 nm. […] FA complexing with the Cys2 Sp1 variant was determined following incubation of FA and Cys2 SP1 variant in the absence or presence of GSH, followed by protein oxidation, ultra filtration (30 kDa cutoff) and exhaustive wash of the retained fraction with PBS with or without GSH. Absorption analysis at both 278 and 490 nm.

Data set [7] is described as follows: Heat stability (no precipitation after heat treatment). The conditions noted are these: 10 min at 100° C. or 30 min at 85° C.

≈ marks a conversion by molar mass, not a printed value. Entries after “also recorded” stand apart in the source; their conditions may differ.

The term IC50 denotes the concentration that gives 50% inhibition. The low end stands for inhibition by little substance, the high end for a need for much substance. `COc1cccc2c1C(=O)c1c(O)c3c(c(O)c1C2=O)C[C@@](O)(C(=O)CO)C[C@@H]3O[C@H]1C[C@H](N)[C@H](O)[C@H](C)O1` [doxorubicin] displayed a 50% inhibitory concentration (IC50) in data set [1] of approximately 0.6 µg/mL (≈ 1.1 µM). For the same molecule, the “histological examination of the tumors” value in data set [2] is on record as “extensive necrosis”. The “average tumor size in the end of the experiment versus PBS-treated animals” value in data set [2] (35 days) is “much smaller”.

B1: Cys2: SP1 variant with cysteine residue inserted in position 2, SEQ ID NO:3 (protein)
chain: MCATRTPKLVKHTLLTRFKDEITREQIDNYINDYTNLLDLIPSMKSFNWGTDLGMESAELNRGYTHAFESTFESKSGLQEYLDSAALAAFAEGFLPTLSQRLVIDYFLY
modifications: Sp1 mutant variant Cys in position 2
For the molecule B1, in data set [3], the “oligomeric complex formation, stability and resistance” value was “formed homo- and hetero-oligomeric complexes”. The “DOX complexing after oxidation prior to DOX addition” value in data set [4] (oxidized protein (H2O2)) is on record as “eliminates DOX complexing”. Besides, the DOX complex formation entry in data set [4] is “effective binding”; in data set [4] (listed as Cys2 SP1 variant), “much greater extent”. The “protease resistance after hexane treatment” value in data set [5] (hexane-treated, data not shown) was “resistance to protease treatment”. For the same molecule, the “resistance of oligomeric complex to organic solvents” value in data set [5] (methanol, hexane, SDS-PAGE) is “Predominantly high molecular weight oligomer complex form; also recorded: even more resistant than the wild type”. In addition, the “FA complexing at low ligand concentration” value in data set [6] (10 μM FA, 10 mM DTT) was “efficient complexing”. Besides, in data set [6] (10 mM DTT), the “efficiency of FA complexing in the presence of reducing agents” value is “greater than 3 fold”. The “retention of the flourescein-amine” value in data set [6] (absence of the reducing agent (GSH), 492/278 ratio) is given as “negligible”. For the same molecule, the “efficiency of FA complexing relative to wild type SP1” value in data set [6] (≧100 μM FA) is “greater than 3 fold”. Further, in data set [7], the Heat stability entry is given as “+”.

Source of the values: patent publication US20150273076A1, “SP1 POLYPEPTIDES, MODIFIED SP1 POLYPEPTIDES AND USES THEREOF” (Fulcrum SP Ltd., priority 2006, published 2015).
